# From PMC11199699
# Residue numbers refer to the chain shown, from its start. Names may count otherwise.
# B1: BDH2 (Homo sapiens) (protein)
# chain: MGRLDGKVIILTAAAQGIGQAAALAFAREGAKVIATDINESKLQELEKYPGIQTRVLDVTKKKQIDQFANEVERLDVLFNVAGFVHHGTVLDCEEKDWDFSMNLNVRSMYLMIKAFLPKMLAQKSGNIINMSSVASSVKGVVNRCVYSTTKAAVIGLTKSVAADFIQQGIRCNCVCPGTVDTPSLQERIQARGNPEEARNDFLKRQKTGRFATAEEIAMLCVYLASDESAYVTGNPVIIDGGWSL
# notes: recombinant (His)6-tagged, expressed in E. coli, purified
# B2: L-KDFDH (FucF; C785_RS13675) (Herbaspirillum huttiense subsp. putei IAM 15032) (protein)
# chain: MSASTGRLAGKTVLITAAAQGIGRASTELFAREGARVIATDISKTHLEELASIAGVETHLLDVTDDDAIKALVAKVGTVDVLFNCAGYVAAGNILECDDKAWDFSFNLNAKAMFHTIRAVLPGMLAKKAGSIVNIASAASSVKGVANRFAYGASKAAVVGLTKSVAADFVSQGIRCNAICPGTIESPSLNQRISTQAKETGKSEDEVRAAFVARQPMGRIGKAEEVAALALYLASDESNFTTGSIHMIDGGWSN
# notes: pQE-80L, N-terminal (His)6-tag, expressed in E. coli, Ni-NTA; homotetramer; EC 1.1.1.434
# B3: L-KDFDH (FucF; C785_RS13675) (Herbaspirillum huttiense subsp. putei IAM 15032; D41S/I42R) (protein)
# chain: B2 chain with D41S, I42R
# notes: as for B2
# B4: L-KDFDH (FucF; C785_RS13675) (Herbaspirillum huttiense subsp. putei IAM 15032; W252M) (protein)
# chain: B2 chain with W252M
# notes: as for B2
# What was measured:
# Test in all cases: purified protein
# purified protein [1] = substrate: C[C@@H](O)CC(=O)O; format: biochemical, Homo sapiens; settings: 1.5 mM NAD+, 50 mM Tris-HCl pH 8.0, 30 °C, substrate range 1-10 mM (Km extrapolated)
# purified protein [2] = substrate: C[C@H](O)[C@@H](O)CC(=O)C(=O)O; format: biochemical, Homo sapiens; settings: 1.5 mM NAD+, 50 mM Tris-HCl pH 8.0, 30 °C
# purified protein [3] = substrate: O=C(O)[C@@H]1C[C@H](O)CN1; format: biochemical, Homo sapiens; settings: 1.5 mM NAD+, 50 mM Tris-HCl pH 8.0, 30 °C
# purified protein [4] = substrate: O=C(O)C(=O)C[C@H](O)[C@H](O)CO; format: biochemical, Herbaspirillum huttiense; settings: 1.5 mM NAD+, 50 mM Tris-HCl pH 8.0, 30 °C
# purified protein [5] = substrate: NC(=O)c1ccc[n+]([C@@H]2O[C@H](COP(=O)(O)OP(=O)(O)OC[C@H]3O[C@@H](n4cnc5c(N)ncnc54)[C@H](OP(=O)(O)O)[C@@H]3O)[C@@H](O)[C@H]2O)c1; format: biochemical, Herbaspirillum huttiense; settings: 10 mM substrate, 50 mM Tris-HCl pH 8.0, 30 °C, varied: cofactor
# purified protein [6] = substrate: C[C@@H](O)CC(=O)O; format: biochemical, Herbaspirillum huttiense; settings: 1.5 mM NAD+, 50 mM Tris-HCl pH 8.0, 30 °C
# purified protein [7] = substrate: NC(=O)c1ccc[n+]([C@@H]2O[C@H](COP(=O)(O)OP(=O)(O)OC[C@H]3O[C@@H](n4cnc5c(N)ncnc54)[C@H](O)[C@@H]3O)[C@@H](O)[C@H]2O)c1; format: biochemical, Herbaspirillum huttiense; settings: 10 mM substrate, 50 mM Tris-HCl pH 8.0, 30 °C, varied: cofactor
# purified protein [8] = substrate: C[C@H](O)[C@@H](O)CC(=O)C(=O)O; format: biochemical, Herbaspirillum huttiense; settings: 1.5 mM NAD+, 50 mM Tris-HCl pH 8.0, 30 °C
# purified protein [9] = substrate: O=C(O)C(=O)C[C@@H](O)CO; format: biochemical, Herbaspirillum huttiense; settings: 1.5 mM NAD+, 50 mM Tris-HCl pH 8.0, 30 °C
# purified protein [10] = substrate: O=C(O)[C@@H]1C[C@H](O)CN1; format: biochemical, Herbaspirillum huttiense; settings: 1.5 mM NAD+, 50 mM Tris-HCl pH 8.0, 30 °C
# purified protein [11] = substrate: O=C(O)[C@H]1C[C@@H](O)CN1; format: biochemical, Herbaspirillum huttiense; settings: 1.5 mM NAD+, 50 mM Tris-HCl pH 8.0, 30 °C, substrate range 1-10 mM (Km extrapolated)
# purified protein [12] = substrate: O=C(O)[C@@H]1C[C@@H](O)CN1; format: biochemical, Herbaspirillum huttiense; settings: 1.5 mM NAD+, 50 mM Tris-HCl pH 8.0, 30 °C
# purified protein [13] = substrate: O=C(O)C(=O)C[C@H](O)CO; format: biochemical, Herbaspirillum huttiense; settings: 1.5 mM NAD+, 50 mM Tris-HCl pH 8.0, 30 °C
# purified protein [14] = substrate: O=C(O)C(=O)C[C@H](O)[C@@H](O)CO; format: biochemical, Herbaspirillum huttiense; settings: 1.5 mM NAD+, 50 mM Tris-HCl pH 8.0, 30 °C
protein,measurement,setting,value
B1,Km,purified protein [1],18500 ± 2900 µM
same,kcat,purified protein [1],0.0698 ± 0.00483 s⁻¹
same,kcat/Km,purified protein [1],3.8 ± 0.333 M⁻¹ s⁻¹
same,Km,purified protein [2],32.2 ± 3.3 µM
same,kcat,purified protein [2],3.67 ± 0.183 s⁻¹
same,kcat/Km,purified protein [2],114000 ± 5830 M⁻¹ s⁻¹
same,Km,purified protein [3],220 ± 61 µM
same,kcat,purified protein [3],4.88 ± 0.5 s⁻¹
same,kcat/Km,purified protein [3],22800 ± 3670 M⁻¹ s⁻¹
B2,Km,purified protein [4],6600 ± 550 µM
same,kcat,purified protein [4],8.25 ± 0.35 s⁻¹
same,kcat/Km,purified protein [4],1250 ± 55 M⁻¹ s⁻¹
same,Km,purified protein [5],1770 ± 300 µM
same,kcat,purified protein [5],0.0678 ± 0.01 s⁻¹
same,kcat/Km,purified protein [5],38.5 ± 1 M⁻¹ s⁻¹
same,Km,purified protein [6],1790 ± 570 µM
same,kcat,purified protein [6],0.00137 ± 0.000167 s⁻¹
same,kcat/Km,purified protein [6],0.795 ± 0.137 M⁻¹ s⁻¹
same,Km,purified protein [7],30.2 ± 3 µM
same,kcat,purified protein [7],29.2 ± 1.3 s⁻¹
same,kcat/Km,purified protein [7],972000 ± 58700 M⁻¹ s⁻¹
same,Km,purified protein [8],115 ± 15 µM
same,kcat,purified protein [8],15 ± 0.317 s⁻¹
same,kcat/Km,purified protein [8],132000 ± 14000 M⁻¹ s⁻¹
same,Km,purified protein [9],5510 ± 660 µM
same,kcat,purified protein [9],3.37 ± 0.183 s⁻¹
same,kcat/Km,purified protein [9],615 ± 36.7 M⁻¹ s⁻¹
same,Km,purified protein [10],4190 ± 350 µM
same,kcat,purified protein [10],0.742 ± 0.0233 s⁻¹
same,kcat/Km,purified protein [10],178 ± 10 M⁻¹ s⁻¹
same,Km,purified protein [11],37800 ± 11500 µM
same,Km,purified protein [12],2260 ± 270 µM
same,kcat,purified protein [12],0.00165 ± 0.000105 s⁻¹
same,kcat/Km,purified protein [12],0.737 ± 0.045 M⁻¹ s⁻¹
same,Km,purified protein [13],2580 ± 240 µM
same,kcat,purified protein [13],27.5 ± 2.03 s⁻¹
same,kcat/Km,purified protein [13],10700 ± 267 M⁻¹ s⁻¹
same,Km,purified protein [14],808 ± 73 µM
same,kcat,purified protein [14],19.8 ± 1.2 s⁻¹
same,kcat/Km,purified protein [14],24700 ± 750 M⁻¹ s⁻¹
B3,Km,purified protein [5],200 ± 4 µM
same,kcat,purified protein [5],3.6 ± 0.0667 s⁻¹
same,kcat/Km,purified protein [5],18050 ± 83.3 M⁻¹ s⁻¹
B4,Km,purified protein [8],219 ± 6 µM
same,kcat,purified protein [8],6.62 ± 0.167 s⁻¹
same,kcat/Km,purified protein [8],30000 ± 83.3 M⁻¹ s⁻¹
